Results published in patent US20260139007A1, “EPHA4 ANTAGONISTS AND USES THEREOF” (SANFORD BURNHAM PREBYS MEDICAL DISCOVERY INSTITUTE, priority 2023, published 2026).

Key:
[1] = target: EphA4 Fc (human EphA4 Fc, #CJ75, Novoprotein, or mouse EphA4 Fc, #641-A4, R&D Systems/BioTechne) (human or mouse) (UniProt P54764); test: competition ELISA, inhibition of ephrin-A5 AP binding to immobilized EphA4 Fc
[2] = target: EphA4 Fc (human EphA4 Fc, #CJ75, Novoprotein, or mouse EphA4 Fc, #641-A4, R&D Systems/BioTechne) (human or mouse) (UniProt P54764); test: competition ELISA, inhibition of ephrin-A5 AP binding to immobilized EphA4 Fc (Table 2, repeats Table 1)

Chain of EphA4 Fc (human EphA4 Fc, #CJ75, Novoprotein, or mouse EphA4 Fc, #641-A4, R&D Systems/BioTechne) (human or mouse) (P54764 20-547): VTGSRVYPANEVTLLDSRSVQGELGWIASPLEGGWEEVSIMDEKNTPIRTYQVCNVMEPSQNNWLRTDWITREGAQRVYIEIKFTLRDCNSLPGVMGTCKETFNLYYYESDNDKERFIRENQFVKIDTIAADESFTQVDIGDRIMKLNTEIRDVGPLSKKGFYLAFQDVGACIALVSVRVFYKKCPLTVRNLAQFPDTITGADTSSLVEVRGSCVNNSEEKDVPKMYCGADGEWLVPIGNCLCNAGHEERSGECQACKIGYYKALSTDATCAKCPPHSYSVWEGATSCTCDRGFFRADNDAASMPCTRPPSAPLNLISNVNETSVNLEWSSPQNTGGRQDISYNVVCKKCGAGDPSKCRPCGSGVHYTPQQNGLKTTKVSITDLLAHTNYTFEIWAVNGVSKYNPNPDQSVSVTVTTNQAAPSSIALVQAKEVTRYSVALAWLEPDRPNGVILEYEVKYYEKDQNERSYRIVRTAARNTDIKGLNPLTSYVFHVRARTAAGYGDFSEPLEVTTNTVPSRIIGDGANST

- IC50 [1]: 20 nM
- IC50 [2]: 20 nM
B1: APY-d3-PEG4 (peptide)
peptide: XPYCVYRXSWSCXXX
modifications: β-alanine at 1 and 8; disulfide bond Cys4-Cys12 (Cyc (4,12)); three 6-aminohexanoic acid (Ahx) residues and propargyl-glycine (Pra) after Cys12; 30 kDa methoxy-PEG on Pra through a triazole (click chemistry); free C-terminal acid (-OH)
